Tests used:
[1] = biological target: T1, truncated peptide (human); assay: competition (chemiluminescence ELISA)
T1 chain: LNPDTGLWE

[2] = biological target: T2, elongated peptide (human); assay: competition (chemiluminescence ELISA)
T2 chain: WSLNPDTGLWE

[3] = biological target: T3, non-sense peptide; assay: competition (chemiluminescence ELISA)
T3 chain: DSGPEYADVV

[4] = biological target: T4, standard/selection peptide SLNPDTGLWE (CILP-M) (human); assay: competition (chemiluminescence ELISA, 20C, pH 7.4)
T4 chain: SLNPDTGLWE

B1: NB326 #76 13B5-1C6-2C4 (antibody, V domains shown)
VH: QVQLQQSGPELVKPGASVRISCKASGYTFTNYYIHWVKQRPGQGLEWIGWISPGIVDTEYNEKFKNKATLTADKSSRTAYMQLSSLTSEDSAVYFCARRSAGSYGDFDYWGQGTTLTVSS
VL: DIVMTQSQKFMSTSVGDRVSVTCKASQNVGTDVVWYQQRPGQSPKALMYSASYRYSGVPDRFTGSGSGTDFTLTISNVQSEDLAEYFCQHYDNYPLTFGAGTKLELK
- binding result [1]: no binding
- binding result [2]: no binding
- binding result [3]: no binding
- IC50 [4]: 2 ng/mL

From patent US20260348977 (published 2026)
